Experimental data published in patent US20200207859A1 (priority 2017, published 2020).

Tests used:
RPMI-6666 (HL) = assay: Cell killing assay (cell proliferation, Cell Titer-Glo); type: cell-based; conditions: 72 hrs
Method: (§1) Cytotoxicity effects of the free drug linkers and conjugates were measured with a cell proliferation assay. A total of 12500 cells in a volume of 25 μl were seeded in a 384-well flat bottom white polystyrene plate on the day of assay. Free drug-linkers and conjugates were formulated at 2× starting concentration (1000 nM for free drug linkers and 100 nM for ADCs) in RPMI medium and filtered through MultiScreen HTS 96-Well Filter Plates (Millipore). Filter sterilized samples were serial diluted (1:3) under sterile conditions and added into treatment wells. Plates were cultured at 37° C. in a CO2 incubator for 72 hrs. For cell viability measurement, 30 μl of Cell Titer-Glo® reagent (Promega Corp.) was added into each well, and plates processed as per product instructions. Relative luminescence was measured on an ENVISION® plate reader (Perkin-Elmer; Waltham, Mass.). Relative luminescence readings were converted to % viability using untreated cells as controls. Data was fitted with non-linear regression analysis, using log(inhibitor) vs. response, variable slope, 4 parameter fit equation using GraphPad Prism. Data was expressed as % relative cell viability vs. dose of free drug-linker or conjugate in nM.

BDCM (AML) = assay: as above; type: cell-based; conditions: 72 hrs
Method: as §1

JVM-13 (CLL) = assay: as above; type: cell-based; conditions: 72 hrs
Method: as §1

SUP-B15 (ALL) = assay: as above; type: cell-based; conditions: 72 hrs
Method: as §1

ARP-1 (MM) = assay: as above; type: cell-based, human; conditions: 72 hrs
Method: as §1

ARD (MM) = assay: as above; type: cell-based, human; conditions: 72 hrs
Method: as §1

SU-DHL-6 (NHL) = assay: as above; type: cell-based, human; conditions: 72 hrs
Method: as §1

RPMI-8226 (MM) = assay: as above; type: cell-based; set-up: key to Cell Killing Activity Span: NK = no killing; NB = no binding; conditions: 72 hrs
Method: as §1

OPM-2 (MM) = assay: as above; type: cell-based; set-up: key to Cell Killing Activity Span: NK = no killing; NB = no binding; conditions: 72 hrs
Method: as §1

K562 (CML) = assay: as above; type: cell-based; set-up: key to Cell Killing Activity Span: NK = no killing; NB = no binding; conditions: 72 hrs
Method: as §1

CD74 (human), P04233 = assay: cell-based or functional assay
Chain of CD74 (human), P04233 (P04233 whole entry): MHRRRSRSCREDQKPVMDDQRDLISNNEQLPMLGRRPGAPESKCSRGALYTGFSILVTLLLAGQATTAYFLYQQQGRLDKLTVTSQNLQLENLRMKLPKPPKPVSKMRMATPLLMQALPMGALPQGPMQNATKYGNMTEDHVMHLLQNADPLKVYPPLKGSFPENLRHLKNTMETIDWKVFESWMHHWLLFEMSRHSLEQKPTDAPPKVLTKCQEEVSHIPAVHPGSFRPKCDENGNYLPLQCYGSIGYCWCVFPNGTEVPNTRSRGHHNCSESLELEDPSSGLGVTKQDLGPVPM

**Q.** How did the “Cell Killing Activity Span” value (RPMI-6666 (HL)) turn out when `COc1cc2cc(c1Cl)N(C)C(=O)C[C@H](OC(=O)[C@H](C)N(C)C(=O)CCCC(=O)N(C)CCOCCOCCOCCOCCC(=O)NCCC(=O)N1Cc3ccccc3C#Cc3ccccc31)[C@]1(C)O[C@H]1[C@H](C)[C@@H]1C[C@@](O)(NC(=O)O1)[C@H](OC)/C=C/C=C(/C)C2` [Free Linker-Drug, DBCO-PEG4-maytansine, reference compound] was run?
**A.** The value was 85%.

**Q.** And the “Cell Killing Activity Span” value (BDCM (AML))?
**A.** Its value is 76%.

**Q.** What about the “Cell Killing Activity Span” value (JVM-13 (CLL)) of the same molecule?
**A.** The value was 65%.

**Q.** What about the “Cell Killing Activity Span” value (SUP-B15 (ALL)) of the same molecule?
**A.** The value was 65%.

**Q.** And the “Cell Killing Activity Span” value (ARP-1 (MM))?
**A.** Its value is 77%.

**Q.** What about the “Cell Killing Activity Span” value (ARD (MM)) of the same molecule?
**A.** Its value is 40%.

**Q.** And the “Cell Killing Activity Span” value (SU-DHL-6 (NHL))?
**A.** The value was 98%.

**Q.** And the “Cell Killing Activity Span” value (RPMI-8226 (MM))?
**A.** The value was “NK”.

**Q.** What about the “Cell Killing Activity Span” value (OPM-2 (MM)) of the same molecule?
**A.** The value was “NK”.

**Q.** What about the “Cell Killing Activity Span” value (K562 (CML)) of the same molecule?
**A.** The value was “NK”.

B1: Conjugate A (anti-CD74 IgG-DBCO-PEG4-maytansine conjugate) (antibody, V domains shown)
VH: QVQLVESGGGVVQPGRSLRLSCAASGFNFSDYGMHWVRQAPGKGLEWVAVIWYDGSISYYADSVKGRFTISRDNSKNTLYLQMNSLRAEDTAVYYCARGGTVEHGAVYGTDVWGQGTTVTVSS
VL: DIQMTQSPSSVSASVGDRVTITCRASQGIGSWLAWYQQKPGKAPKLLIYAADRLQSGVPSRFSGSGSGTDFTLTISSLQPEDFATYYCQQYHTYPLTFGGGTKVEIK
modifications: here or on the partner: para-azidomethyl-L-phenylalanine (pAMF, residue 30) at heavy chain EU position 404 (constant region, outside SEQ ID NO 236), linked to DBCO-PEG4-maytansine
**Q.** What does the source list for B1?
**A.** cell killing EC50, HH T lymphoma cells, 120 h CellTiter-Glo (CD74 (human), P04233): 0.22 nM; cell killing EC50, HuT-78 T lymphoma cells, 120 h CellTiter-Glo (CD74 (human), P04233): 0.59 nM; cell killing EC50, My-La T lymphoma cells, 120 h CellTiter-Glo (CD74 (human), P04233): 0.54 nM; cell killing IC50, ARD (MM) cells (CD74 (human), P04233): 8.6 nM; cell killing IC50, ARD (MM) cells, 72 h CellTiter-Glo (CD74 (human), P04233): 8.6 nM; cell killing IC50, ARP-1 (MM) cells (CD74 (human), P04233): 9 nM; cell killing IC50, ARP-1 (MM) cells, 72 h CellTiter-Glo (CD74 (human), P04233): 9 nM; cell killing IC50, BDCM (AML) cells (CD74 (human), P04233): 4.6 nM; cell killing IC50, BDCM (AML) cells, 72 h CellTiter-Glo (CD74 (human), P04233): 4.6 nM; cell killing IC50, JVM-13 (CLL) cells (CD74 (human), P04233): 1.5 nM; cell killing IC50, JVM-13 (CLL) cells, 72 h CellTiter-Glo (CD74 (human), P04233): 1.5 nM; cell killing IC50, RPMI-6666 (HL) cells (CD74 (human), P04233): 1 nM; cell killing IC50, RPMI-6666 (HL) cells, 72 h CellTiter-Glo (CD74 (human), P04233): 1 nM; cell killing IC50, SU-DHL-6 (NHL) cells (CD74 (human), P04233): 0.6 nM; cell killing IC50, SU-DHL-6 (NHL) cells, 72 h CellTiter-Glo (CD74 (human), P04233): 0.6 nM; cell killing IC50, SUP-B15 (ALL) cells (CD74 (human), P04233): 3 nM; cell killing IC50, SUP-B15 (ALL) cells, 72 h CellTiter-Glo (CD74 (human), P04233): 3 nM; cell killing Span, ARD (MM) cells (CD74 (human), P04233): 40%; cell killing Span, ARD (MM) cells, 72 h CellTiter-Glo (CD74 (human), P04233): 38%; cell killing Span, ARP-1 (MM) cells (CD74 (human), P04233): 77%; cell killing Span, ARP-1 (MM) cells, 72 h CellTiter-Glo (CD74 (human), P04233): 74%; cell killing Span, BDCM (AML) cells (CD74 (human), P04233): 76%; cell killing Span, BDCM (AML) cells, 72 h CellTiter-Glo (CD74 (human), P04233): 74%; cell killing Span, HH T lymphoma cells, 120 h CellTiter-Glo (CD74 (human), P04233): 77%; cell killing Span, HuT-78 T lymphoma cells, 120 h CellTiter-Glo (CD74 (human), P04233): 72%; cell killing Span, JVM-13 (CLL) cells (CD74 (human), P04233): 65%; cell killing Span, JVM-13 (CLL) cells, 72 h CellTiter-Glo (CD74 (human), P04233): 58%; cell killing Span, My-La T lymphoma cells, 120 h CellTiter-Glo (CD74 (human), P04233): 73%; cell killing Span, RPMI-6666 (HL) cells (CD74 (human), P04233): 85%; cell killing Span, RPMI-6666 (HL) cells, 72 h CellTiter-Glo (CD74 (human), P04233): 84%; cell killing Span, SU-DHL-6 (NHL) cells (CD74 (human), P04233): 98%; cell killing Span, SU-DHL-6 (NHL) cells, 72 h CellTiter-Glo (CD74 (human), P04233): 98%; cell killing Span, SUP-B15 (ALL) cells (CD74 (human), P04233): 65%; cell killing Span, SUP-B15 (ALL) cells, 72 h CellTiter-Glo (CD74 (human), P04233): 64%

B2: Conjugate C (anti-CD74 IgG-val-cit-PAB-hemiasterlin conjugate) (antibody, V domains shown)
VH: B1 VH
VL: B1 VL
modifications: here or on the partner: modified amino acid residue 30 (pAMF) according to Example 2, position not stated for this conjugate, linked to val-cit-PAB-hemiasterlin
**Q.** Which results are given for B2?
**A.** cell killing IC50, JVM-13 (CLL) cells (CD74 (human), P04233): 0.9 nM; cell killing IC50, RPMI-6666 (HL) cells (CD74 (human), P04233): 0.9 nM; cell killing IC50, SU-DHL-6 (NHL) cells (CD74 (human), P04233): 0.3 nM; cell killing Span, ARD (MM) cells (CD74 (human), P04233): 74%; cell killing Span, ARP-1 (MM) cells (CD74 (human), P04233): 87%; cell killing Span, BDCM (AML) cells (CD74 (human), P04233): 89%; cell killing Span, JVM-13 (CLL) cells (CD74 (human), P04233): 54%; cell killing Span, RPMI-6666 (HL) cells (CD74 (human), P04233): 84%; cell killing Span, RPMI-8226 (MM) cells (CD74 (human), P04233): 43%; cell killing Span, SU-DHL-6 (NHL) cells (CD74 (human), P04233): 97%; cell killing Span, SUP-B15 (ALL) cells (CD74 (human), P04233): 68%

B3: Conjugate E (anti-CD74 IgG-PEG4-MMAF conjugate) (antibody, V domains shown)
VH: B1 VH
VL: B1 VL
modifications: here or on the partner: modified amino acid residue 30 (pAMF) according to Example 2, position not stated for this conjugate, linked to PEG4-MMAF
**Q.** Which results are given for B3?
**A.** cell killing IC50, ARD (MM) cells (CD74 (human), P04233): 18 nM; cell killing IC50, ARP-1 (MM) cells (CD74 (human), P04233): 6 nM; cell killing IC50, BDCM (AML) cells (CD74 (human), P04233): 3.3 nM; cell killing IC50, JVM-13 (CLL) cells (CD74 (human), P04233): 7.8 nM; cell killing IC50, RPMI-6666 (HL) cells (CD74 (human), P04233): 1.5 nM; cell killing IC50, SU-DHL-6 (NHL) cells (CD74 (human), P04233): 0.5 nM; cell killing IC50, SUP-B15 (ALL) cells (CD74 (human), P04233): 2.5 nM; cell killing Span, ARD (MM) cells (CD74 (human), P04233): 20%; cell killing Span, ARP-1 (MM) cells (CD74 (human), P04233): 71%; cell killing Span, BDCM (AML) cells (CD74 (human), P04233): 78%; cell killing Span, JVM-13 (CLL) cells (CD74 (human), P04233): 47%; cell killing Span, RPMI-6666 (HL) cells (CD74 (human), P04233): 80%; cell killing Span, SU-DHL-6 (NHL) cells (CD74 (human), P04233): 98%; cell killing Span, SUP-B15 (ALL) cells (CD74 (human), P04233): 58%
